Reference: paper PMC5712524, “Mechanism of early light signaling by the carboxy-terminal output module of Arabidopsis phytochrome B” (Nature Communications, 2017)
Blank lines part the entries; values can stand above or below the binder they belong to.

Legend:
[1] = target: T1, GST-PIF3 (Arabidopsis, UniProt O80536 1-524); assay: pull-down; GST pull-down: immobilized GST-PIF3 pulls down HA-tagged PHYB in the Pr form; anti-HA immunoblot; procedure as ref. 33; conditions: one partner purified
T1 construct: the construct is not described here
T1 sequence (looked up): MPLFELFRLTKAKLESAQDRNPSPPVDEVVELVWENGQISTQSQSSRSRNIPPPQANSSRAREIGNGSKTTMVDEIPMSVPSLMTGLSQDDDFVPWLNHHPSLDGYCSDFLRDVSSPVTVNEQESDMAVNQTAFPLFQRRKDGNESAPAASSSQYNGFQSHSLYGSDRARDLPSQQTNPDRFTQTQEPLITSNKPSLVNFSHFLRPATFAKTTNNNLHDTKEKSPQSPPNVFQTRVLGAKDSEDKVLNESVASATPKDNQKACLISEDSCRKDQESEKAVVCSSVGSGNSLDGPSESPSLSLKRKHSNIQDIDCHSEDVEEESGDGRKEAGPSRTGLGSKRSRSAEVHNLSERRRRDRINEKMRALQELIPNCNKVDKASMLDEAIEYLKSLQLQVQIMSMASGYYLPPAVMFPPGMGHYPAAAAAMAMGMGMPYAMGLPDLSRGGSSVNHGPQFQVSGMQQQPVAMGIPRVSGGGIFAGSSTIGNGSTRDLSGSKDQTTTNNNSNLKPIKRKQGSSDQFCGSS

[2] = target: the molecule itself; assay: co-IP; in vitro co-immunoprecipitation: HA-tagged bait and Myc-tagged prey co-expressed in TNT T7 reticulocyte lysate, anti-HA Affinity Matrix, E buffer (50 mM Tris-HCl pH 7.5, 100 mM NaCl, 1 mM EDTA, 1 mM EGTA, 1% DMSO, 2 mM DTT, 0.1% Nonidet P-40), 4 °C 2 h; anti-Myc immunoblot
[3] = target: T1, GST-PIF3; assay: pull-down; GST pull-down: immobilized GST-PIF3 pulls down HA-tagged PHYB as apoprotein; anti-HA immunoblot; procedure as ref. 33; conditions: one partner purified

- interaction relative to that of PHYB-HA [1]: ~0.33 fraction of wild type
B1: PHYB18-HA (PHYB D1040V), Pr or Pfr form (natural protein, Arabidopsis, UniProt P14713 1-1172, looked up)
chain: MVSGVGGSGGGRGGGRGGEEEPSSSHTPNNRRGGEQAQSSGTKSLRPRSNTESMSKAIQQYTVDARLHAVFEQSGESGKSFDYSQSLKTTTYGSSVPEQQITAYLSRIQRGGYIQPFGCMIAVDESSFRIIGYSENAREMLGIMPQSVPTLEKPEILAMGTDVRSLFTSSSSILLERAFVAREITLLNPVWIHSKNTGKPFYAILHRIDVGVVIDLEPARTEDPALSIAGAVQSQKLAVRAISQLQALPGGDIKLLCDTVVESVRDLTGYDRVMVYKFHEDEHGEVVAESKRDDLEPYIGLHYPATDIPQASRFLFKQNRVRMIVDCNATPVLVVQDDRLTQSMCLVGSTLRAPHGCHSQYMANMGSIASLAMAVIINGNEDDGSNVASGRSSMRLWGLVVCHHTSSRCIPFPLRYACEFLMQAFGLQLNMELQLALQMSEKRVLRTQTLLCDMLLRDSPAGIVTQSPSIMDLVKCDGAAFLYHGKYYPLGVAPSEVQIKDVVEWLLANHADSTGLSTDSLGDAGYPGAAALGDAVCGMAVAYITKRDFLFWFRSHTAKEIKWGGAKHHPEDKDDGQRMHPRSSFQAFLEVVKSRSQPWETAEMDAIHSLQLILRDSFKESEAAMNSKVVDGVVQPCRDMAGEQGIDELGAVAREMVRLIETATVPIFAVDAGGCINGWNAKIAELTGLSVEEAMGKSLVSDLIYKENEATVNKLLSRALRGDEEKNVEVKLKTFSPELQGKAVFVVVNACSSKDYLNNIVGVCFVGQDVTSQKIVMDKFINIQGDYKAIVHSPNPLIPPIFAADENTCCLEWNMAMEKLTGWSRSEVIGKMIVGEVFGSCCMLKGPDALTKFMIVLHNAIGGQDTDKFPFPFFDRNGKFVQALLTANKRVSLEGKVIGAFCFLQIPSPELQQALAVQRRQDTECFTKAKELAYICQVIKNPLSGMRFANSLLEATDLNEDQKQLLETSVSCEKQISRIVGDMDLESIEDGSFVLKREEFFLGSVINAIVSQAMFLLRDRGLQLIRDIPEEIKSIEVFGVQIRIQQLLAEFLLSIIRYAPSQEWVEIHLSQLSKQMADGFAAIRTEFRMACPGEGLPPELVRDMFHSSRWTSPEGLGLSVCRKILKLMNGEVQYIRESERSYFLIILELPVPRKRPLSTASGSGDMMLMMPY
modifications: Pr or Pfr form (chromophore used not named for this experiment)
notes: Same chain as m21, with chromophore; not shown: HA, C-terminal, kept

B2: full-length PHYB18 (PHYB D1040V), N-terminal HA- or Myc-tagged (natural protein, Arabidopsis, UniProt P14713 1-1172, looked up)
chain: MVSGVGGSGGGRGGGRGGEEEPSSSHTPNNRRGGEQAQSSGTKSLRPRSNTESMSKAIQQYTVDARLHAVFEQSGESGKSFDYSQSLKTTTYGSSVPEQQITAYLSRIQRGGYIQPFGCMIAVDESSFRIIGYSENAREMLGIMPQSVPTLEKPEILAMGTDVRSLFTSSSSILLERAFVAREITLLNPVWIHSKNTGKPFYAILHRIDVGVVIDLEPARTEDPALSIAGAVQSQKLAVRAISQLQALPGGDIKLLCDTVVESVRDLTGYDRVMVYKFHEDEHGEVVAESKRDDLEPYIGLHYPATDIPQASRFLFKQNRVRMIVDCNATPVLVVQDDRLTQSMCLVGSTLRAPHGCHSQYMANMGSIASLAMAVIINGNEDDGSNVASGRSSMRLWGLVVCHHTSSRCIPFPLRYACEFLMQAFGLQLNMELQLALQMSEKRVLRTQTLLCDMLLRDSPAGIVTQSPSIMDLVKCDGAAFLYHGKYYPLGVAPSEVQIKDVVEWLLANHADSTGLSTDSLGDAGYPGAAALGDAVCGMAVAYITKRDFLFWFRSHTAKEIKWGGAKHHPEDKDDGQRMHPRSSFQAFLEVVKSRSQPWETAEMDAIHSLQLILRDSFKESEAAMNSKVVDGVVQPCRDMAGEQGIDELGAVAREMVRLIETATVPIFAVDAGGCINGWNAKIAELTGLSVEEAMGKSLVSDLIYKENEATVNKLLSRALRGDEEKNVEVKLKTFSPELQGKAVFVVVNACSSKDYLNNIVGVCFVGQDVTSQKIVMDKFINIQGDYKAIVHSPNPLIPPIFAADENTCCLEWNMAMEKLTGWSRSEVIGKMIVGEVFGSCCMLKGPDALTKFMIVLHNAIGGQDTDKFPFPFFDRNGKFVQALLTANKRVSLEGKVIGAFCFLQIPSPELQQALAVQRRQDTECFTKAKELAYICQVIKNPLSGMRFANSLLEATDLNEDQKQLLETSVSCEKQISRIVGDMDLESIEDGSFVLKREEFFLGSVINAIVSQAMFLLRDRGLQLIRDIPEEIKSIEVFGVQIRIQQLLAEFLLSIIRYAPSQEWVEIHLSQLSKQMADGFAAIRTEFRMACPGEGLPPELVRDMFHSSRWTSPEGLGLSVCRKILKLMNGEVQYIRESERSYFLIILELPVPRKRPLSTASGSGDMMLMMPY
notes: Two differently tagged copies: the bait copy has the HA tag, the prey copy the Myc tag (each copy has one tag only); also called HA-PHYB18; Myc-PHYB18; source: in vitro translated (TNT T7 Coupled Reticulocyte Lysate System), co-expressed; not shown: HA, N-terminal, kept; Myc, N-terminal, kept
- fold reduction of the interaction against wild-type PHYB [2]: 5 fold

- interaction relative to that of PHYB-HA [3]: ~0.33 fraction of wild type
B3: PHYB18-HA (PHYB D1040V), apoprotein (natural protein, Arabidopsis, UniProt P14713 1-1172, looked up)
chain: MVSGVGGSGGGRGGGRGGEEEPSSSHTPNNRRGGEQAQSSGTKSLRPRSNTESMSKAIQQYTVDARLHAVFEQSGESGKSFDYSQSLKTTTYGSSVPEQQITAYLSRIQRGGYIQPFGCMIAVDESSFRIIGYSENAREMLGIMPQSVPTLEKPEILAMGTDVRSLFTSSSSILLERAFVAREITLLNPVWIHSKNTGKPFYAILHRIDVGVVIDLEPARTEDPALSIAGAVQSQKLAVRAISQLQALPGGDIKLLCDTVVESVRDLTGYDRVMVYKFHEDEHGEVVAESKRDDLEPYIGLHYPATDIPQASRFLFKQNRVRMIVDCNATPVLVVQDDRLTQSMCLVGSTLRAPHGCHSQYMANMGSIASLAMAVIINGNEDDGSNVASGRSSMRLWGLVVCHHTSSRCIPFPLRYACEFLMQAFGLQLNMELQLALQMSEKRVLRTQTLLCDMLLRDSPAGIVTQSPSIMDLVKCDGAAFLYHGKYYPLGVAPSEVQIKDVVEWLLANHADSTGLSTDSLGDAGYPGAAALGDAVCGMAVAYITKRDFLFWFRSHTAKEIKWGGAKHHPEDKDDGQRMHPRSSFQAFLEVVKSRSQPWETAEMDAIHSLQLILRDSFKESEAAMNSKVVDGVVQPCRDMAGEQGIDELGAVAREMVRLIETATVPIFAVDAGGCINGWNAKIAELTGLSVEEAMGKSLVSDLIYKENEATVNKLLSRALRGDEEKNVEVKLKTFSPELQGKAVFVVVNACSSKDYLNNIVGVCFVGQDVTSQKIVMDKFINIQGDYKAIVHSPNPLIPPIFAADENTCCLEWNMAMEKLTGWSRSEVIGKMIVGEVFGSCCMLKGPDALTKFMIVLHNAIGGQDTDKFPFPFFDRNGKFVQALLTANKRVSLEGKVIGAFCFLQIPSPELQQALAVQRRQDTECFTKAKELAYICQVIKNPLSGMRFANSLLEATDLNEDQKQLLETSVSCEKQISRIVGDMDLESIEDGSFVLKREEFFLGSVINAIVSQAMFLLRDRGLQLIRDIPEEIKSIEVFGVQIRIQQLLAEFLLSIIRYAPSQEWVEIHLSQLSKQMADGFAAIRTEFRMACPGEGLPPELVRDMFHSSRWTSPEGLGLSVCRKILKLMNGEVQYIRESERSYFLIILELPVPRKRPLSTASGSGDMMLMMPY
notes: not shown: HA, C-terminal, kept
